Experimental data taken from patent US20250019435A1 (ALBERT EINSTEIN COLLEGE OF MEDICINE, published 2025).

Target: T1, KIR2DL5 wild type (KIR2DL5A*001) expressed on cells (human, UniProt Q8N109 22-375)
T1 construct: UniProtKB Q8N109 and NP_065396.1 are printed for this entry; In the SHP-1/SHP-2 co-immunoprecipitation the cells were treated with pervanadate and the receptor was tyrosine-phosphorylated; also called KIR2DL5/3T3; WT KIR2DL5
Test: flow cytometry, blocking: KIR2DL5/3T3 cells preincubated with serial F8B30, then 20 µg/mL PVR-Ig
Procedure: Specifically, a cell-based binding assay was performed by incubating PVR-Ig fusion protein with KIR2DL5- or KIR2DL4-expressing 3T3 cells. Conversely, KIR2DL5 was selectively bound by PVR, but not by CD112 (also known as nectin-2), another ligand for TIGIT and DNAM-1 in the nectin/nectin-like family (FIG. 10A). Furthermore, anti-KIR2DL5 mAb F8B30 blocked KIR2DL5-PVR interaction (EC₅₀=0.095 μM) (FIG. 10B). The specificity of KIR2DL5 binding to PVR was also evidenced by an intercellular interaction assay, in which 3T3 cells expressing PVR interacted with 3T3 cells expressing KIR2DL5, but not with cells expressing KIR3DL3 (FIG. 18B), a newly identified inhibitory receptor of HHLA2 (Zang, 2022; Wei 2021; Bhatt 2021).
Fusion protein cell binding assays. PVR-Ig, CD112-Ig, or hIgG (R&D Systems) was incubated with corresponding 3T3 cells on ice for 45 minutes, followed by incubation with APC- or PE-conjugated anti-human IgG Fc antibody (1:100; clone HP6017, BioLegend) on ice for 30 minutes. Cells were then acquired on an LSR II flow cytometer (BD Biosciences). In the anti-KIR2DL5 mAb blocking assay, KIR2DL5/3T3 cells were preincubated with a serial concentration of anti-KIR2DL5 mAb F8B30 or mIgG1 on ice for 30 minutes. After washing, the cells were then incubated with 20 μg/mL PVR-Ig or hIgG on ice for 45 minutes, followed by incubation with APC anti-human IgG Fc antibody on ice for 30 minutes. […]

EC50: 95 nM
B1: anti-KIR2DL5 mAb clone F8B30 (antibody, V domains shown)
VH: QIQLVQSGPELKKPGETVKISCKASGYTFTDYSMHWVKQAPGKGLKWMGWINTETGGPTYADDFKGRFAFSLETSATTAYLQINNLKNEDTATYFCSRDVDLYFDYWGQGTTLTVS
VL: DIQMTQSPASLSASVGETVTITCRTSENIYSYLAWYQQKQGKSPQLLVYNAKTLVEGVPSRFSGSGSGTQFSVKINSLQPEDFGNYYCQHHYGIPFTFGGGTKLEIK
notes: also called F8B30 (IgG1, κ)
